Source: patent US20180273621A1 (AstraZeneca / MedImmune, published 2018)
Residue numbers refer to the chain shown, from its start. Each block holds one binder with its values, some of them ahead of it.

Assays:
human CD19 antigen [1] = target: T1, human CD19 antigen (human, UniProt P15391 20-556); experiment: cell-based or functional assay
T1 sequence (looked up): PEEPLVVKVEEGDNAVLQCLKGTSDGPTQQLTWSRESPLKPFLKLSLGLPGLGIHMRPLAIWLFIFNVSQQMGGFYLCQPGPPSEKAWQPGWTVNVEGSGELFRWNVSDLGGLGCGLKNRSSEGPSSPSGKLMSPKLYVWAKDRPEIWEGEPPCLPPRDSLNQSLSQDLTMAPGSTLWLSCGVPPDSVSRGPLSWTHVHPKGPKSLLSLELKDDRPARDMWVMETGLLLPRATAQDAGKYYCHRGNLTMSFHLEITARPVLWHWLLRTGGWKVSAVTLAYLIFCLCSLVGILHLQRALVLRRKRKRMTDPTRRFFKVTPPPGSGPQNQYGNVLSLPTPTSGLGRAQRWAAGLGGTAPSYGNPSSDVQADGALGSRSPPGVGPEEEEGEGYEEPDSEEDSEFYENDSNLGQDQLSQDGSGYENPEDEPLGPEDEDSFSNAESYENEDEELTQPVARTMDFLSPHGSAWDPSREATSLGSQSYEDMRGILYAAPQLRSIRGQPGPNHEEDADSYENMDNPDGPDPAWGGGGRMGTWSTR

human CD19 antigen [2] = target: T1, human CD19 antigen; experiment: cell based ELISA on 300B4 cells expressing recombinant human CD19, OD450
Protocol: (§1) 300B4 cells were cultured according to standard protocols in RPMI 1640 medium containing L-glutamine and supplemented with 10% Fetal Calf Serum, β-mercaptoethanol in the presence of 1 mg/ml G418. A standard ELISA protocol can be used for the cell based CD19 binding assay. […] Binding reactions are performed in triplicates for each antibody concentration tested. Negative control wells using an isotype matched antibody of irrelevant specificity should be included in the assay. Following incubation with the antibody 300B4 cells are washed three times with 200 micro liter of ELISA buffer. The amount of chimeric, humanized, or human anti-CD19 antibodies bound to 300B4 cells can be detected using a goat anti-human kappa antibody conjugated with horseradish peroxidase according to standard protocols.
An isotype matched human antibody of irrelevant specificity was included in the assay as a negative control.

human CD19 antigen [3] = target: T1, human CD19 antigen; experiment: as above; remark: listed apart in the source
Protocol: as §1

human CD19 antigen [4] = target: T1, human CD19 antigen; experiment: cell based ECL binding assay (Meso Scale Discovery; Lu et al. 2006) on 300B4 cells as titled on the sheet, Fab supernatant, signal in Units
Protocol: (§2) CDR specific phage display libraries were generated as described above. Libraries were screened by testing a large number of phage clones (approximately 400 clones per library) in single point cell based binding assay (Lu et al., J. Immunol. Methods 314:74-79 (2006)). Reagents and disposables were purchased from Meso Scale Discovery; assays were performed following the manufacturer's instructions.
(§3) Combinatorial phage display libraries were prepared as described above. Individual Fab clones from the combinatorial library were tested for binding to 300B4 and Raji cells (Lu et al., J. Immunol. Methods 314:74-79 (2006)).

human CD19 antigen [5] = target: T1, human CD19 antigen; experiment: cell based ECL binding assay (Meso Scale Discovery; Lu et al. 2006) on Raji cells as titled on the sheet, Fab supernatant, signal in Units
Protocol: as §2, §3

human CD19 antigen [6] = target: T1, human CD19 antigen; experiment: cell based ECL binding assay (Meso Scale Discovery; Lu et al. 2006) on 300B4 cells expressing recombinant human CD19, Fab supernatant, signal in Units
Protocol: as §2

B3: 5C4 affinity matured Fab (Fab, V domains shown)
VH: EVQLVESGGGLVQPGGSLRLSCAASGFTFSSVWMNWVRQAPGKGLEWVGRIYPGDGDTNYNVKFKGRFTISRDDSKNSLYLQMNSLKTEDTAVYYCARSGFITTVRDFDYWGQGTLVTVSS
VL: EIVLTQSPDFQSVTPKEKVTITCRASESVITFGISFINWFQQKPDQSPKLLIHEASNPYSGVPSRFSGSGSGTDFTLTINSLEAEDAATYYCAQTKRVPFTFGGGTKVEIK
notes: Fab
EC50 (read off the curve) (human CD19 antigen [4]): ~0.4 µg/mL

B5: 16C4 affinity matured anti-CD19 IgG antibody (antibody, V domains shown)
VH: B3 VH with V32S
VL: B3 VL with I30D, I37M, P58Q, Y59G, A93Q, T95S, R97E
% max. cell kill at 10 ug/ml, DB target cells (human CD19 antigen [1]): 6%
% max. cell kill at 10 ug/ml, Daudi target cells (human CD19 antigen [1]): 16%
% max. cell kill at 10 ug/ml, Farage target cells (human CD19 antigen [1]): 13%
% max. cell kill at 10 ug/ml, Granta-519 target cells (human CD19 antigen [1]): 0%
% max. cell kill at 10 ug/ml, Karpas-422 target cells (human CD19 antigen [1]): 6%
% max. cell kill at 10 ug/ml, Karpas-1106P target cells (human CD19 antigen [1]): 16%
% max. cell kill at 10 ug/ml, Nalm-6 target cells (human CD19 antigen [1]): 17%
% max. cell kill at 10 ug/ml, Namalwa target cells (human CD19 antigen [1]): 4%
% max. cell kill at 10 ug/ml, Oci-LY19 target cells (human CD19 antigen [1]): 6%
% max. cell kill at 10 ug/ml, RL target cells (human CD19 antigen [1]): 15%
% max. cell kill at 10 ug/ml, Raji target cells (human CD19 antigen [1]): 26%
% max. cell kill at 10 ug/ml, Toledo target cells (human CD19 antigen [1]): 12%
ADCC EC50, Daudi target cells (human CD19 antigen [1]): 0.0576 ng/mL
ADCC EC50, Farage target cells (human CD19 antigen [1]): 0.0927 ng/mL
ADCC EC50, Karpas-1106P target cells (human CD19 antigen [1]): 0.533 ng/mL
ADCC EC50, RL target cells (human CD19 antigen [1]): 0.0393 ng/mL
ADCC EC50, Raji target cells (human CD19 antigen [1]): 0.012 ng/mL
ADCC EC50, Toledo target cells (human CD19 antigen [1]): 0.0545 ng/mL

B6: 6C11 affinity matured Fab (Fab, V domains shown)
VH: B3 VH with P53L
VL: B3 VL with I30D, I37M, Y59G, A93Q
notes: Fab
EC50 (read off the curve) (human CD19 antigen [4]): ~0.5 µg/mL

B7: 3C3 affinity matured Fab (16C4 variant) (Fab, V domains shown)
VH: B3 VH
VL: B3 VL with I30D, T31H, T95S, R97E, F100I
notes: Fab
EC50 (read off the curve) (human CD19 antigen [5]): ~0.3 µg/mL
EC50 (read off the curve) (human CD19 antigen [4]): ~0.4 µg/mL

B8: 64D4 affinity matured Fab (16C4 variant, VH CDR2 Pro > Leu at 52A) (Fab, V domains shown)
VH: B3 VH with V32S, P53L
VL: B3 VL with I30D, I37M, P58Q, Y59G, A93Q, T95S, R97E
notes: Fab with human γ1 CH1 and human kappa constant domain; position is Kabat
EC50 (read off the curve) (human CD19 antigen [6]): ~1 µg/mL

B9: 16C4 Fab (Fab, V domains shown)
VH: B3 VH with V32S
VL: B3 VL with I30D, I37M, P58Q, Y59G, A93Q, T95S, R97E
notes: Fab with human γ1 CH1 and human kappa constant domain; also called Clone 16C4; 16C4sup
EC50 (read off the curve) (human CD19 antigen [6]): ~1 µg/mL

B11: Chimeric HB12B antibody comprising HB12B VH and HB12B VK (antibody, human IgG1, V domains shown)
VH: QVQLQQSGPELVKPGASVKISCKASGYAFSSSWMNWVIQRPGQGLEWIGRIYPGDGDTNYNGKFKGKATLTADKSSSTAYMQLSSLTSVDSAVYFCARSGFITTVLDFDYWGHGTTLTVSS
VL: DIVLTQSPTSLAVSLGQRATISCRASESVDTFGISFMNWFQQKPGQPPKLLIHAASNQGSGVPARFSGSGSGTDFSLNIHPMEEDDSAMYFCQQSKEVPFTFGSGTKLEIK
notes: also called chHB12B; chimeric anti-CD19 antibody
EC50 (read off the curve) (human CD19 antigen [2]): ~200 ng/mL
EC50 (read off the curve) (human CD19 antigen [3]): ~80 ng/mL

Continued, in another order:

ADCC EC50, Daudi target cells (human CD19 antigen [1]): 0.0031 ng/mL
ADCC EC50, Farage target cells (human CD19 antigen [1]): 0.0141 ng/mL
ADCC EC50, Karpas-422 target cells (human CD19 antigen [1]): 0.0181 ng/mL
ADCC EC50, Karpas-1106P target cells (human CD19 antigen [1]): 0.009 ng/mL
ADCC EC50, Nalm-6 target cells (human CD19 antigen [1]): 0.0199 ng/mL
ADCC EC50, Namalwa target cells (human CD19 antigen [1]): 0.012 ng/mL
ADCC EC50, Oci-LY19 target cells (human CD19 antigen [1]): 0.0163 ng/mL
ADCC EC50, RL target cells (human CD19 antigen [1]): 0.0073 ng/mL
ADCC EC50, Raji target cells (human CD19 antigen [1]): 0.003 ng/mL
ADCC EC50, Toledo target cells (human CD19 antigen [1]): 0.0075 ng/mL
B1: afucosylated 16C4 anti-CD19 antibody (antibody, human IgG1, V domains shown)
VH: B3 VH with V32S
VL: B3 VL with I30D, I37M, P58Q, Y59G, A93Q, T95S, R97E
modifications: afucosylated Fc N-glycan (as for 3649-aFuc)
% max. cell kill at 10 ug/ml, DB target cells (human CD19 antigen [1]): 34%
% max. cell kill at 10 ug/ml, Daudi target cells (human CD19 antigen [1]): 50%
% max. cell kill at 10 ug/ml, Farage target cells (human CD19 antigen [1]): 48%
% max. cell kill at 10 ug/ml, Granta-519 target cells (human CD19 antigen [1]): 6%
% max. cell kill at 10 ug/ml, Karpas-422 target cells (human CD19 antigen [1]): 62%
% max. cell kill at 10 ug/ml, Karpas-1106P target cells (human CD19 antigen [1]): 59%
% max. cell kill at 10 ug/ml, Nalm-6 target cells (human CD19 antigen [1]): 35%
% max. cell kill at 10 ug/ml, Namalwa target cells (human CD19 antigen [1]): 23%
% max. cell kill at 10 ug/ml, Oci-LY19 target cells (human CD19 antigen [1]): 47%
% max. cell kill at 10 ug/ml, RL target cells (human CD19 antigen [1]): 45%
% max. cell kill at 10 ug/ml, Raji target cells (human CD19 antigen [1]): 43%
% max. cell kill at 10 ug/ml, Toledo target cells (human CD19 antigen [1]): 48%

EC50 (read off the curve) (human CD19 antigen [2]): ~200 ng/mL
EC50 (read off the curve) (human CD19 antigen [3]): ~70 ng/mL
B2: humanized anti-CD19 antibody #1 comprising HB12B-(3-72/JH4) VH and HB12B-364987 VK (antibody, human IgG1, V domains shown)
VH: B3 VH with V32S, V62G, R106L
VL: B3 VL with I30D, I37M, E54A, P58Q, Y59G, Y91F, A93Q, T95S, R97E
notes: Human IgG1/kappa constant regions; also called humanized HB12B antibody #1

ADCC EC50, Daudi target cells (human CD19 antigen [1]): 0.0576 ng/mL
ADCC EC50, Farage target cells (human CD19 antigen [1]): 0.0536 ng/mL
ADCC EC50, Karpas-422 target cells (human CD19 antigen [1]): 0.0442 ng/mL
ADCC EC50, Karpas-1106P target cells (human CD19 antigen [1]): 0.0142 ng/mL
ADCC EC50, Nalm-6 target cells (human CD19 antigen [1]): 0.0605 ng/mL
ADCC EC50, Namalwa target cells (human CD19 antigen [1]): 0.04 ng/mL
ADCC EC50, Oci-LY19 target cells (human CD19 antigen [1]): 0.0518 ng/mL
ADCC EC50, RL target cells (human CD19 antigen [1]): 0.0194 ng/mL
ADCC EC50, Raji target cells (human CD19 antigen [1]): 0.009 ng/mL
ADCC EC50, Toledo target cells (human CD19 antigen [1]): 0.0155 ng/mL
B4: afucosylated 3649 anti-CD19 antibody (antibody, human IgG1, V domains shown)
VH: B3 VH with V32S, V62G, R106L
VL: B3 VL with I30D, I37M, E54A, P58Q, Y59G, A93Q, T95S, R97E
modifications: complex N-glycoside-linked sugar chains linked to Asn297 of the Fc region in which fucose is not bound to N-acetylglucosamine in the reducing end
% max. cell kill at 10 ug/ml, DB target cells (human CD19 antigen [1]): 42%
% max. cell kill at 10 ug/ml, Daudi target cells (human CD19 antigen [1]): 51%
% max. cell kill at 10 ug/ml, Farage target cells (human CD19 antigen [1]): 48%
% max. cell kill at 10 ug/ml, Granta-519 target cells (human CD19 antigen [1]): 9%
% max. cell kill at 10 ug/ml, Karpas-422 target cells (human CD19 antigen [1]): 64%
% max. cell kill at 10 ug/ml, Karpas-1106P target cells (human CD19 antigen [1]): 59%
% max. cell kill at 10 ug/ml, Nalm-6 target cells (human CD19 antigen [1]): 39%
% max. cell kill at 10 ug/ml, Namalwa target cells (human CD19 antigen [1]): 25%
% max. cell kill at 10 ug/ml, Oci-LY19 target cells (human CD19 antigen [1]): 54%
% max. cell kill at 10 ug/ml, RL target cells (human CD19 antigen [1]): 46%
% max. cell kill at 10 ug/ml, Raji target cells (human CD19 antigen [1]): 44%
% max. cell kill at 10 ug/ml, Toledo target cells (human CD19 antigen [1]): 53%

EC50 (read off the curve) (human CD19 antigen [3]): ~80 ng/mL
B10: humanized anti-CD19 antibody #2 comprising HB12B-(3-72/JH4) VH, HB12B-3649 VK, and IgG1 heavy chain constant region (antibody, V domains shown)
VH: B3 VH with V32S, V62G, R106L
VL: B3 VL with I30D, I37M, E54A, P58Q, Y59G, A93Q, T95S, R97E
notes: also called humanized HB12B antibody #2
